# US20130004493
# T1: Epithelial membrane protein 2 (EMP2), human, P54851
# T1 chain: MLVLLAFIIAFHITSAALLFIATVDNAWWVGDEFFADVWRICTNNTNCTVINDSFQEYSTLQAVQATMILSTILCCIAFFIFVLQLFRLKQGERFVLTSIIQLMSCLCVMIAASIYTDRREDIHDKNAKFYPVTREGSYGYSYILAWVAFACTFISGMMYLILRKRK
# Target: T1, Epithelial membrane protein 2 (EMP2), …
protein,measurement,value
"Focal adhesion kinase (FAK), human (protein) AAAYLDPNLNHTPNSSTKTHLGTGMERSPGAMERVLKVFHYFESNSEPTTWASIIRHGDATDVRGIIQKIVDSHKVKHVACYGFRLSHLRSEEVHWLHVDMGVSSVREKYELAHPPEEWKYELRIRYLPKGFLNQFTEDKPTLNFFYQQVKSDYMLEIADQVDQEIALKLGCLEIRRSYWEMRGNALEKKSNYEVLEKDVGLKRFFPKSLLDSVKAKTLRKLIQQTFRQFANLNREESILKFFEILSPVYRFDKECFKCALGSSWIISVELAIGPEEGISYLTDKGCNPTHLADFTQVQTIQYSNSEDKDRKGMLQLKIAGAPEPLTVTAPSLTIAENMADLIDGYCRLVNGTSQSFIIRPQKEGERALPSIPKLANSEKQGMRTHAVSVSETDDYAEIIDEEDTYTMPSTRDYEIQRERIELGRCIGEGQFGDVHQGIYMSPENPALAVAIKTCKNCTSDSVREKFLQEALTMRQFDHPHIVKLIGVITENPVWIIMELCTLGELRSFLQVRKYSLDLASLILYAYQLSTALAYLESKRFVHRDIAARNVLVSSNDCVKLGDFGLSRYMEDSTYYKASKGKLPIKWMAPESINFRRFTSASDVWMFGVCMWEILMHGVKPFQGVKNNDVIGRIENGERLPMPPNCPPTLYSLMTKCWAYDPSRRPRFTELKAQLSTILEEEKAQQEERMRMESRRQATVSWDSGGSDEAPPKPSRPGYPSPRSSEGFYPSPQHMVQTNHYQVSGYPGSHGITAMAGSIYPGQASLLDQTDSWNHRPQEIAMWQPNVEDSTVLDLRGIGQVLPTHLMEERLIRQQQEMEEDQRWLEKEERFLKPDVRLSRGSIDREDGSLQGPIGNQHIYQPVGKPDPAAPPKKPPRPGAPGHLGSLASLSSPADSYNEGVKLQPQEISPPPTANLDRSNDKVYENVTGLVKAVIEMSSKIQPAPPEEYVPMVKEVGLALRTLLATVDETIPLLPASTHREIEMAQKLLNSDLGELINKMKLAQQYVMTSLQQEYKKQMLTAAHALAVDAKNLLDVIDQARLKMLGQTRPH","phosphorylation of FAK at Tyr-397, Tyr-407, Tyr-861 and Tyr-925 (quantitative Western blot, ARPE-19/EMP2 against ARPE-19)","EMP2 overexpression enhanced phosphorylation of FAK two- to three-fold at Tyr-397, Tyr-407, Tyr-861, and Tyr-925"
